Target: T1, PQLC2-FLAG wild type (human, UniProt Q6ZP29 1-291)
T1 sequence: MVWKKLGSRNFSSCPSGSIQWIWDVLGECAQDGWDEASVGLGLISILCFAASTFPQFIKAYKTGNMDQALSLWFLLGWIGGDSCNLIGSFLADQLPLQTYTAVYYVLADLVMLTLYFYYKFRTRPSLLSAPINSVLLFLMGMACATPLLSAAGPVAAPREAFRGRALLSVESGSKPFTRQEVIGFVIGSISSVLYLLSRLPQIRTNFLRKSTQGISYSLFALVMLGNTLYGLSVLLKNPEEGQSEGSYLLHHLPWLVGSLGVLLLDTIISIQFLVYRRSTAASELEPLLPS
Assay: pull-down

binding result: binds
Binder: TGFFNMWGFG [GST-WDR41-PIP (GST fused to the 10 amino acid PIP sequence)]

Source: paper doi:10.1101/2020.07.15.204800 (bioRxiv, 2020)
